Laboratory results: article PMC7684278

How the values were obtained:
[1] = target: Cas7 of the Desulfovibrio vulgaris type I-C Cascade (Desulfovibrio vulgaris); assay: cryo-EM structure; purified type I-C Cascade with its crRNA, 0.3 mg/mL in 20 mM HEPES-NaOH pH 7.5, 100 mM KCl, 1 mM TCEP; graphene oxide grids; 3.1 A (3.13 A) reconstruction
[2] = target: Cas7 of the Desulfovibrio vulgaris type I-C Cascade (Desulfovibrio vulgaris); assay: native MS; purified type I-C Cascade with its crRNA, about 6 uM, in 100 mM ammonium acetate; positive mode; in-source trapping at -120 and -300 V to release subunits and subcomplexes
[3] = target: Cas8c, large subunit of the Desulfovibrio vulgaris type I-C Cascade (Desulfovibrio vulgaris); assay: as above

| Substance | stoichiometry N [1] | stoichiometry N [2] | stoichiometry N [3] |
| --- | --- | --- | --- |
| Cas7 of the Desulfovibrio vulgaris type I-C Cascade (natural protein) | 7 | 7 | – |
| non-canonical small subunit (SSU) Cas11c of the Desulfovibrio vulgaris type I-C Cascade (domain or fragment) | – | – | 2 |
